Results from article doi:10.1101/2025.04.12.648492 (bioRxiv, 2025).

B1: NB-AGT-2, HA-tagged clone from the phage display vector (VHH)
VHH: QVQLVESGGGLVQAGGSLRLSCAASGRTFSSYAMGWFRQAPGKEREFVAAINWSGGSTFYADSVKGRFTISRDNAKNTVYLQMNSLKPEDTAVYYCAAARADPYYSISYYSTTHEYDYWGQGTQVTVS
B2: NB-AGT-6, HA-tagged clone from the phage display vector (VHH)
VHH: QVQLVESGGGSVQTGGSLRLACVASGFTSDHYSIGWFRQAPGKEREGVSCIGMHDGSTKYAESVKGRFTISSDNDKNTVYLQMNSLKPEDTAVYYCAAGPLVLLDSDTYQSWGEGTQVTVS
B3: NB-AGT-3, HA-tagged clone from the phage display vector (VHH)
VHH: QVQLVESGGGLVQAGGSLILSCAASGFTFGHYAIGWFRQAPGKEREGVSCINSNDGSTYYADSVKGRFTISSDNAKNTVYLQMNSLKPEDTAVYYCAADYPPYYCSGYGWPSDGINYWGKGTQVTVS
B4: NB-AGT-4, HA-tagged clone from the phage display vector (VHH)
VHH: QVQLVESGGGLVQSGGSLRLSCVASGGTFSTWSMGWFRQAPGKEREFVAVISWSGTIADYGDSVKGRFTISRDNAKNTVYLQMNSLKPEDTAVYYCAADPVGRVLYSDVGWQYWGQGTQVTVS
B5: NB-AGT-2 (VHH)
VHH: QVQLVESGGGLVQAGGSLRLSCAASGRTFSSYAMGWFRQAPGKEREFVAAINWSGGSTFYADSVKGRFTISRDNAKNTVYLQMNSLKPEDTAVYYCAAARADPYYSISYYSTTHEYDYWGQGTQVTVS
B6: NB-AGT-6 (VHH)
VHH: QVQLVESGGGSVQTGGSLRLACVASGFTSDHYSIGWFRQAPGKEREGVSCIGMHDGSTKYAESVKGRFTISSDNDKNTVYLQMNSLKPEDTAVYYCAAGPLVLLDSDTYQSWGEGTQVTVS
B7: NB-AGT-3 (VHH)
VHH: QVQLVESGGGLVQAGGSLILSCAASGFTFGHYAIGWFRQAPGKEREGVSCINSNDGSTYYADSVKGRFTISSDNAKNTVYLQMNSLKPEDTAVYYCAADYPPYYCSGYGWPSDGINYWGKGTQVTVS
B8: NB-AGT-4 (VHH)
VHH: QVQLVESGGGLVQSGGSLRLSCVASGGTFSTWSMGWFRQAPGKEREFVAVISWSGTIADYGDSVKGRFTISRDNAKNTVYLQMNSLKPEDTAVYYCAADPVGRVLYSDVGWQYWGQGTQVTVS

Each binder was assayed against T1, alanine:glyoxylate aminotransferase 1, wild-type (major haplotype) (Homo sapiens, major haplotype, UniProt P21549) (assay: ELISA).
T1 sequence (P21549 whole entry): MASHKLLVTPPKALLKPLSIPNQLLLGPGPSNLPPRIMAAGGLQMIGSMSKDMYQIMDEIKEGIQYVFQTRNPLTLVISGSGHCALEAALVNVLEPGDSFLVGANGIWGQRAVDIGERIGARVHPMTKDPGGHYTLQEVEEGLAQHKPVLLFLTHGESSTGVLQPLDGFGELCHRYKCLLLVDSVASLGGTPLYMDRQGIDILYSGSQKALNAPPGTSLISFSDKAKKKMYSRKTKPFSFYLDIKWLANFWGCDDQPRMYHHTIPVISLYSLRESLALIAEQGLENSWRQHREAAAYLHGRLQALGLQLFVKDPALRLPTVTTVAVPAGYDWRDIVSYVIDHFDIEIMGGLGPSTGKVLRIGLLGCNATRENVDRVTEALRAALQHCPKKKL
B1: binds. B2: binds. B3: binds. B4: binds.

The binders below were run against T1, alanine:glyoxylate aminotransferase 1, … (assay: SPR).
B5: binds. B6: binds. B7: binds. B8: binds.
